In a protein production outcome set (Wang et al. 2014):

Assay: label from the status in PepcDB records

Row | Sequence | protein production
1 | MAHATPPSALEQGGPIRVEHDRQRRQFSVRLNGCHDRAVLLYEYVGKRIVDLQHTEVPDAYRGRGIAKHLAKAALDFVVEEDLKAHLTCWYIQKYVKENPLPQYLERLQP | failed
2 | MAHELSAGSVFAGYRIERMLGAGGMGTVYLARNPDLPRSEALKVLAAELSRDLDFRARFVREADVAAGLDHPNIVAVHQRGQFEGRLWIAMQFVDGGNAEDALRAATMTTARAVYVIGEVAKALDYAHQQGVIHRDIKPANFLLSRAAGGDERVLLSDFGIARALGDTGLTSTGSVLATLAYAAPEVLAGQGFDGRADLYSLGCALFRLLTGEAPFAAGAGAAVAVVAGHLHQPPPTVSDRVPGLSAAMDAVIATAMAKDPMRRFTSAGEFAHAAAAALYGGATDGWVPPSPAPHVISQGAVPGSPWWQHPVGSVTALATPPGHGWPPGLPPLPRRPRRYRRGVAAVAAVMVVAAAAVTAVTMTSHQPRTATPPSAAALSPTSSSTTPPQPPIVTRSRLPGLLPPLDDVKNFVGIQNLVAHEPMLQPQTPNGSINPAECWPAVGGGVPSAYDLGTVIGFYGLTIDEPPTGTAPNQVGQLIVAFRDAATAQRHLADLASIWRRCGGRTVTLFRSEWRRPVELSTSVPEVVDGITTMVLTAQGPVLRVREDHAIAAKNNVLVDVDIMTPDTSRGQQAVIGITNYILAKIPG | failed
3 | MAHHHHHHMNPHPVEPRDQIAELLVESPLFSFNCAHFIAFKGFRETLHGHNYNVSLRLRGNIQGDGYVIDFSILKEKVRKVCKQLDHHFILPMYSDVLNIQEVNDNFKITCEDNSEYSFPKRDCVQIPIKHSSTEEIGLYILNQLIEEIDLPFLKTRSVNYMEVTVSESPSQKATVHRNI | not failed
4 | MAHIEKVPQRPGFSWRYRRIDEVEKEYDLHFHDDVFELVIHRHFTGSLHIGHHELEVTHNQMLLIAPGVPHSIHSTLVESKCETHVIWFKREWIANLMFYCAELRKLDPLLKAANKGVVFSERTAQHVVDLLHELMTFPAMEQLSRFLHVLSLIAHDEGAKTLMTHSYLSMSEHELQERERVASVNAYLEQHFATKVTLADLANYLSLSESAVTRLFQKHFKEPFSQRLMKLRINHAADLLQSTSLPIGIVFERVGYRNQALFNRHFKTYKGLTPRDYRQHYQQRIQP | failed
5 | MAHLVITIGCEYGAKGNQIGKKVAKDLGIKFYDRDTVDEIIKEVGIPKDIMEKVEEGITIAGKGAEGDVRGSFSKYADLTERAIHVQKTIIRKLSDRESCVIIGRSADYILKEHKPILRIFIYSPDEVRIENVMKSHNLSEDDAKLFITEKDKRYHKRHMALTGSNRGDRHNRDMLIDSSLLGVDGTAELIESLARKVVENESKTEAGGDK | not failed
6 | MAHVRLFRHYIHLPFVILGLIDLIVMGLAFALAVFFRFFGELEFFLDNLVFVLPSITIFALFNLIVMIALGVHQSRVEEGMSGMMLRTIMAMILAIPLHGFAYFVADDWLWYLGSFGLLTSATVLGIFSLGIARVVFFAVVGKDRFKRRVLVLGAGRRAKQMFEDLTTPFNRKGFSLDGFVPMPDDTVEVDEQYLINLPTSLHDYVLRHPVREIVVAVDDRRRGLPMEDLLECKMEGVHIIDGANFYERESRKVALEMITRGWLVFSDGFTVSSVYGVGKRALDVLASGTLLLATFPIMILTAIAIKLEDGLKAPVIYSQERVGLNNQVFKVHKFRSMITDAEKNGAVWARKNDTRVTRVGEFIRKVRIDELPQIFNVLNGTMAFVGPRPERPVFVEQLSEKIPFYAERHRVKPGLTGWAQLCFAYADNEEDTREKLRYDLYYIKNQSLLLDLLIIIQTVEVVLFKKGSR | failed
7 | MAIASSSPSSSSNVSVIPTGPQVFISFRGKELRKGFISFLVPALKKKNINVFIDEHEVRGKDLISLFRRIGESKIALVIFSEGYTESKWCLDELVQIKKCVDQKKIIAIPIFYKLDPAVVKGLKGKFGDKFRDLIERYHHEPERYQKWTEALTSVSRTFALCLPEHRLRFFNHKNCLFLVAQDTNDKSEKDFIRSIIKEVKKALSNISRERNGDREEIDDCFVVSERKLTTDMYDTPE | failed
8 | MAIDTTSSAPVHEPQPPLDTRLSTRDKLVLFVLCAAQFMVALDFSVLNVALPVLGRDLGMSQSALQWAVTAFALPSGGFLLLFGRIGDLYGRRRLFLTGLALFGTASLLATFAWDPASFLAGRALQGLGAAAIVPTGMSLLTTTFPEGPARDRALGISGTLLSLGFTVGMVAGGVLTDAFGWRSTMGLLTLFALIVLPLAPGLLPESRTPDRPRLDIPGAVTVTGGLLSLIYALSTAAERGFGGTDVIATLVAGVLLLAAFVTVESHAEAPLVSLPMLRRRTVAWGNLGGLITFSMMSTVVFVLTLYLQETLGLSAFETGLVFGVQGVLSAVAGANASKVIGRLGARRTLVVSLAGQGAFVATLVALGDGGWSVWLATAAVSLASMCHLGAIISYGLTVTSGVPDDEQGLATGLVTSTQQVGITIGIPLLGVLATTSSDLLAGVHTVLALDAVIVLAAAVLIAVGLGRRPATAPGAASGAVEAEAVGSR | failed
9 | MAIESGYILTTPCKNEEKSLPELAESIINQTITPKLWLIINDNSTDNSAKILRDIETKYNWIRVVTSEGQKRDLSFHYAEVVRYGLSLSLEISSAEKIPVEYIGLIDADMILEKNFFEKMIDRFEQDPNLGVASGSTAYFEAENLVTEKGRDNLPIGGLRVWRRECLIETGGFPLSYSADSVSNVLALLHGWETKKFEDIIGIQTRRTGSAEGLWKGYITKGESDYYRDYHPVYVLSKFIKYSFTHPFYIGIAYMEGYINGIVKIKKKICIPEVRRYYRKKHLEIGRYYAGKFKFKLLEHHHHHH | failed
10 | MAIGMSELKKGLKIELGGVPYRIVEYQHVKPGKGAAFVRAKIKSFLDGKVIEKTFHAGDKCEEPNLVEKTMQYLYHDGDTYQFMDIESYEQIALNDSQVGEASKWMLDGMQVQVLLHNDKAISVDVPQVVALKIVETAPNFKGDTSSASKKPATLETGAVVQVPFHVLEGEIIKVNTETEEYLEKVK | failed
11 | MAIIASNNSWDLYQLAVVILNYRTPQLVVDCLASLVSQIDPQTQQVIVVDNASGDDSVEEIEKAIANNNWQDWVRLLPSDVNGGFSAGNNLGIQAIRAENYLLLNSDTIVRPGAIQTLLVALEQYPEAGLFSPRLEWPDGTPQISCFRDHSPLSEMIDGARTSVITKLLQPFDVPIPVTEQSFEPQWTSFACVLIRRSVVEQIGLMDDGYFMYYDDIDYCRRARQAAWKIRYIPQASVVHLRGGSGSVKSDVASRKRPRPYLYASRSRYFAKFYGPLGLALANLGWLGGWGIAALREILGQKEPHTCDRQWQDIWFQWRQPLKPYRPELEHHHHHH | not failed
12 | MAIKFQYNKTSLQQLEKQLKVRVRTLPIIKNKESALRMEVKRCKTEAAGLEERLEKQIQAYEAMFALWNEFDASLIKVSDVHLGIKKIAGVRVPLLENVDFDIRPYSLFNSPKWYSDGIYLLKGLAQTAIEREFMLAKLNLLEHARKKTTQKVNLFEKVQIPGYQDALRKIKRFMEDEENLSKSSQKILKSIQEKRKEAEA | not failed
13 | MAIKVGINGFGRIGRSFFRASWGREEIEIVAINDLTDAKHLAHLLKYDSVHGIFKGSVEAKDDSIVVDGKEIKVFAQKDPSQIPWGDLGVDVVIEATGVFRDRENASKHLQGGAKKVIITAPAKNPDITVVLGVNEEKYNPKEHNIISNASCTTNCLAPCVKVLNEAFGVEKGYMVTVHAYTNDQRLLDLPHKDFRRARAAAINIVPTTTGAAKAIGEVIPELKGKLDGTARRVPVPDGSLIDLTVVVNKAPSSVEEVNEKFREAAQKYRESGKVYLKEILQYCEDPIVSTDIVGNPHSAIFDAPLTQVIDNLVHIAAWYDNEWGYSCRLRDLVIYLAERGL | not failed
14 | MAIRDAFGLTFSGATETGFTPYSQAVRELLCFIGDPVASVDRAILADPGFVMAHVFKGYLFGLATERDATAVARACHEAALPLAATTREEAHVLALGHLANGRWHDAARILEDVAIETPLDALALQVGHQIDFFTGNARMLRDRIARALPSWQSGMPGYHAILGMQAFGLEEMGDYTRAEKLGRTAVEIEPRDGWAQHAVAHVMEMQSRQRDGIVWMRANPEAWTKESFLQVHNWWHLALFHYDLGEIDQVLALYDGPIYGAPSAMALNMVDASALLWRLHLGGIDVGDRWAALAANWPKAGAGDYAFNDAHAMMAFVGAGLDGPALALLEAQREAMHGSGDNAAFTRDVGHPLTLAIKAFGEANYTEAVQLIRPIRAIANRFGGSHAQRDVIDLTLIEAALRAGDRALAGALTAERSMARPDSPLSVLLARRAADLSEN | failed
15 | MAISKDLYPSQEDLLYEEELLRNQFSLKLWWRYLIAKAESPFKKRFIIYERALKALPGSYKLWYAYLRERLDIVRNLPVTHPQYDSLNNTFERGLVTMHKMPRIWVMYLQTLTVQQLITRTRRTFDRALCALPVTQHDRIWEPYLVFVSQNGIPIETSLRVYRRYLMYDPSHIEEFIEFLVKSERWQESAERLASVLNDDKFYSIKGKTKHKLWLELCELLVHHANVISGLNVDAIIRGGIRKFTDEVGMLWTSLADYYIRKNLLEKARDIYEEGMMKVVTVRDFSVIFDVYSRFEESTVAKKMEMMSSSDEEDENEENGVEDDEEDVRLNFNLSVKELQRKILNGFWLNDDNDVDLRLARLEELMNRRPALANSVLLRQNPHNVEQWHRRVKIFEGNAAKQILTYTEAVRTVDPMKAVGKPHTLWVAFAKLYENHKDLVNTRVIFDKAVQVNYKTVDHLASVWCEWAEMELRHKNFKGALELMRRATAVPTVEVRRRVAADGNEPVQMKLHRSLRLWSFYVDLEESLGTLESTRAVYEKILDLRIATPQIIMNYAFLLEENKYFEDAFKVYERGVKIFKYPHVKDIWVTYLTKFVKRYGKTKLERARELFEHAVSMAPSDAVRTLYLQYAKLEEDYGLAKRAMKVYEEATKKVPEGQKLEMYEIYISRAAEIFGVPRTREIYEQAIESGLPHKDVKIMCIKFAELERSLGEIDRARALYKYSSQFADPRSDPEFWNKWHEFEVQHGNEDTYREMLRIKRSVSASYSQTHFILPENMMQKDKLLDVEDAKGELKRAGLPEDEMAALERQLLSTTTPTEPAKDGGRRVGFVSAGVISQSGENEGKPVTGNGEDIELPDESDDESDGDDHVEISQKEVPAAVFGGLARKRDEDGEEAGEDGAAQKLGALERIKRQKLNQ | failed
16 | MAKAGGITNAVNVGIAVQADWENREFISHISLNVRRLFEFLVQFGKPHSLTYFSVLGFEFN | failed
17 | MAKEVVYRGSARQRMMQGIEILARAAIPTLGATGPSVMIQHRADGLPPISTRDGVTVANSIVLKDRVANLGARLLRDVAGTMSREAGDGTTTAIVLARHIAREMFKSLAVGADPIALKRGIDRAVARVSEDIGARAWRGDKESVILGVAAVATKGEPGVGRLLLEALDAVGVHGAVSIELGQRREDLLDVVDGYRWEKGYLSPYFVTDRARELAELEDVYLLMTDREVVDFIDLVPLLEAVTEAGGSLLIAADRVHEKALAGLLLNHVRGVFKAVAVTAPGFGDKRPNRLLDLAALTGGRAVLEAQGDRLDRVTLADLGRVRRAVVSADDTALLGIPGTEASRARLEGLRLEAEQYRALKPGQGSATGRLHELEEIEARIVGLSGKSAVYRVGGVTDVEMKERMVRIENAYRSVVSALEEGVLPGGGVGFLGSMPVLAELEARDADEARGIGIVRSALTEPLRIIGENSGLSGEAVVAKVMDHANPGWGYDQESGSFCDLHARGIWDAAKVLRLALEKAASVAGTFLTTEAVVLEIPDTDAFAGFSAEWAAATREDPRV | failed
18 | MAKFIMVVGTSSNSGKTVLVSGICRMLSNKGYKVAPFKSQNMSLNSRVSVEDGEIAVAQYTQAMAARAEPSVHFNPILLKPKGNFVSQVIVHGNPYEDKDYNEYRSKKDDFLVKIKESIDYLDKNYDYVVIEGAGSCCEINLLNDDIANLKVAEIAGADAILVSDIDRGGVFASIYGTVQLLPENWKKLLKGFVINKFRGNIDVLKDGFEKIEELTNIPVIGTIPYDETLVLPEEDSQALDGKRVFGNLKSPIEVNVVKFSKIANFTDVDPFSSDCLMKYIDFNENITGDILILPGTRCSTVEMDLMKKYGMDKKILEFVENGGIVLGICGGYQALGKMLFDEDFSEGDVGTISGLGLFDMETTFGNKKAIKNSTGKISIFNQNFDVSGYELHEGYSVSNETPLISLSKGFGNCGDSYDGSFKMIGDSYIFGTYFHGILENFEFRNYLVNLARSKKNLSKIEDDTYAELFNENMDKLSKIIEENLDFSKIIG | failed
